From paper PMC4858679, “PCNA is involved in the EndoQ-mediated DNA repair process in Thermococcales” (Scientific Reports, 2016) come the findings set out here.

Data set [1] addresses T1, Endonuclease Q from Pyrococcus furiosus (Pyrococcus furiosus (endogenous in P. …, UniProt Q8U0N5 1-424)).
T1 sequence (looked up): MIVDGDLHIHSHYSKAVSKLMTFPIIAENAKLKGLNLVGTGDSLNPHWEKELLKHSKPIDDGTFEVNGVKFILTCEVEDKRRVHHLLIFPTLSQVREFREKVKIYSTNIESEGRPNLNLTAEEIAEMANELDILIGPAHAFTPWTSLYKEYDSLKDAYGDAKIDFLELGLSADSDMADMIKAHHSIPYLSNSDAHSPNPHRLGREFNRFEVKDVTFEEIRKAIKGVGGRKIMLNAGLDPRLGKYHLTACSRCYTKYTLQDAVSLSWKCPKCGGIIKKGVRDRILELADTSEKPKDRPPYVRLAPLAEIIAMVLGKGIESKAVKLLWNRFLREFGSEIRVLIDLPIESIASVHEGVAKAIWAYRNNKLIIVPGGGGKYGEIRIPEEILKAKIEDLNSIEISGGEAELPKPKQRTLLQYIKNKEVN
The experiment in a line: cell-based or functional assay.

Data set [2] concerns the molecule itself. The experiment in a line: SEC; gel filtration of purified TkoPCNA1 proteins; 160 μM.
Data set [3] concerns the target T2, Endonuclease Q from Thermococcus kodakarensis, wild type (Thermococcus kodakarensis, UniProt Q5JI33 1-421).
T2 construct: Endonuclease Q (EndoQ), Thermococcus kodakarensis KOD1, locus TK0887, GenBank BAD85076; printed MW 48080.3; the C-terminal truncation removes residues 409-421, so the chain ends at 421; no tag is named; also called TkoEndoQ; TkoEndoQ^WT; source: E. coli, purified (as described previously)
T2 sequence (looked up): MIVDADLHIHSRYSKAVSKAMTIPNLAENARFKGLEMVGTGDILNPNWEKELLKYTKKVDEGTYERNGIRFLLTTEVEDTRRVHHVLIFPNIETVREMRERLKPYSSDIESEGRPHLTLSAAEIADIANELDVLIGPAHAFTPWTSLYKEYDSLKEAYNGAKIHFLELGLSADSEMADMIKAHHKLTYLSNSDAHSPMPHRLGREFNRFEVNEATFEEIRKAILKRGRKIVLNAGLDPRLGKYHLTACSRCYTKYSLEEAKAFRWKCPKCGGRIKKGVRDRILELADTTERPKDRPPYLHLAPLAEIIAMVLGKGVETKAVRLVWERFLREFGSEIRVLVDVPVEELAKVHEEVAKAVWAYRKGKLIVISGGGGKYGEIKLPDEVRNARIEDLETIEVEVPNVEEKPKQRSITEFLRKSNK
Nature of the data set: SPR; Biacore J; TkoPCNA1 immobilised on a CM5 chip, TkoEndoQ injected (12-800 nM, 120 s); 25 °C; 10 mM HEPES pH 7.4, 0.4 M NaCl, 0.005% Tween20; 1:1 reaction model; apparent KD. The note with it: both partners purified. On the technique in general: Surface plasmon resonance follows binding to a sensor surface in real time, without labels.

B1: Proliferating cell nuclear antigen from Pyrococcus furiosus (natural protein, UniProt O73947 1-249, looked up)
chain: MPFEIVFEGAKEFAQLIDTASKLIDEAAFKVTEDGISMRAMDPSRVVLIDLNLPSSIFSKYEVVEPETIGVNMDHLKKILKRGKAKDTLILKKGEENFLEITIQGTATRTFRVPLIDVEEMEVDLPELPFTAKVVVLGEVLKDAVKDASLVSDSIKFIARENEFIMKAEGETQEVEIKLTLEDEGLLDIEVQEETKSAYGVSYLSDMVKGLGKADEVTIKFGNEMPMQMEYYIRDEGRLTFLLAPRVEE
Regarding B1, the “stimulation of the endonuclease activity of purified PfuEndoQ on dI-containing DNA by purified PfuPCNA (0.18 M NaCl)” value in data set [1] was in the range of 6 to 7 fold.

B2: Proliferating cell nuclear antigen 1 from Thermococcus kodakarensis, wild type (natural protein, UniProt Q5JF32 1-249, looked up)
chain: MPFEVVFDGAKEFADLIATASNLIDEAAFKFTEEGISMRAMDPSRVVLIDLNLPESIFSKYEVEEPETIGINMDQFKKILKRGKAKDTLILRKGDENFLEITFEGTAKRTFRLPLIDVEELELELPELPFTAKVVLLGEVLKEGIKDASLVSDAIKFIAKENEFTMKAEGETNEVEIRLTLEDEGLLDLEVEEETKSAYGIRYLSDMVKGIGKADEVILRFGNEMPLQMEYMIRDEGRLTFLLAPRVEE
notes: PCNA1 (DNA polymerase sliding clamp 1), Thermococcus kodakarensis, locus TK0535; printed MW 28239.4; also called TkoPCNA1; TkoPCNA1^WT; source: E. coli, purified (as described previously)
For the molecule B2, the binding result in data set [2] is “binds”. Also, in data set [3], the Kd was 55 nM.
